This data set concerns the target Himar1C9-XTEN-dCas9 (Himar-dCas9) (synthetic fusion (Haematobia irritans …, UniProt Q99ZW2 SEQ:1-1732)). In words: no gRNA; baseline insertion hotspot. The conditions noted are these: tags: C-terminal 6xHis; chain copies: 2 inferred. The procedure: FIG. 2A through FIG. 2C. Himar-dCas9 specificity is dependent on gRNA spacing and target site. (FIG. 2A) Illustration of gRNA strand orientation and spacings to TA insertion site gRNA1 (SEQ ID NO: 53) and gRNA2 (SEQ ID No: 54) and target DNA (SEQ ID No: 55). (FIG. 2B) PCR analysis of transposon-target junctions from in vitro reactions containing 30 nM Himar-dCas9/gRNA complex, 2.27 nM transposon donor DNA, and 2.27 nM target DNA. Reactions (n=3) were run using gRNAs with spacings between 5 and 18 bp from the TA insertion site. Non-targeting gRNA (gRNA_5), no gRNA, and no transposase controls were also performed. Arrowheads indicate expected site-specific PCR products for each gRNA. Error bars indicate standard deviation. (FIG. 2C) Transposon sequencing results for reactions with no gRNAs (left, n=4) or with gRNA_4 (n=3), gRNA_8 (n=3), gRNA_12 (n=3), or gRNA_5 (n=3). The baseline random distribution of transposons along the recipient plasmid in each panel with a gRNA is shown in light gray.
To assess the distribution of transposon insertions around the target pGT-B1 plasmid, transposon sequencing was performed on transposition products resulting from three GFP-targeting gRNAs (gRNA_4, gRNA_8, and gRNA_12), a non-targeting gRNA, and no gRNA (FIG. 2C and FIG. 8). […]

B1: pGT-B1 position 5999 T/A-rich insertion site (dsDNA)
DNA 1: GCGAATTTTAAAATTCGC
DNA 2: GCGAATTTTAAAATTCGC
As for B1, the binding result is listed as “binds”.
